In publication PMC5576363:

How the values were obtained:
LbuC2c2-dHEPN1 = target: T1, LbuC2c2-dHEPN1 (Leptotrichia buccalis, UniProt C7NBY4 1-1159, R472A;H477A); assay: filter binding
T1 sequence: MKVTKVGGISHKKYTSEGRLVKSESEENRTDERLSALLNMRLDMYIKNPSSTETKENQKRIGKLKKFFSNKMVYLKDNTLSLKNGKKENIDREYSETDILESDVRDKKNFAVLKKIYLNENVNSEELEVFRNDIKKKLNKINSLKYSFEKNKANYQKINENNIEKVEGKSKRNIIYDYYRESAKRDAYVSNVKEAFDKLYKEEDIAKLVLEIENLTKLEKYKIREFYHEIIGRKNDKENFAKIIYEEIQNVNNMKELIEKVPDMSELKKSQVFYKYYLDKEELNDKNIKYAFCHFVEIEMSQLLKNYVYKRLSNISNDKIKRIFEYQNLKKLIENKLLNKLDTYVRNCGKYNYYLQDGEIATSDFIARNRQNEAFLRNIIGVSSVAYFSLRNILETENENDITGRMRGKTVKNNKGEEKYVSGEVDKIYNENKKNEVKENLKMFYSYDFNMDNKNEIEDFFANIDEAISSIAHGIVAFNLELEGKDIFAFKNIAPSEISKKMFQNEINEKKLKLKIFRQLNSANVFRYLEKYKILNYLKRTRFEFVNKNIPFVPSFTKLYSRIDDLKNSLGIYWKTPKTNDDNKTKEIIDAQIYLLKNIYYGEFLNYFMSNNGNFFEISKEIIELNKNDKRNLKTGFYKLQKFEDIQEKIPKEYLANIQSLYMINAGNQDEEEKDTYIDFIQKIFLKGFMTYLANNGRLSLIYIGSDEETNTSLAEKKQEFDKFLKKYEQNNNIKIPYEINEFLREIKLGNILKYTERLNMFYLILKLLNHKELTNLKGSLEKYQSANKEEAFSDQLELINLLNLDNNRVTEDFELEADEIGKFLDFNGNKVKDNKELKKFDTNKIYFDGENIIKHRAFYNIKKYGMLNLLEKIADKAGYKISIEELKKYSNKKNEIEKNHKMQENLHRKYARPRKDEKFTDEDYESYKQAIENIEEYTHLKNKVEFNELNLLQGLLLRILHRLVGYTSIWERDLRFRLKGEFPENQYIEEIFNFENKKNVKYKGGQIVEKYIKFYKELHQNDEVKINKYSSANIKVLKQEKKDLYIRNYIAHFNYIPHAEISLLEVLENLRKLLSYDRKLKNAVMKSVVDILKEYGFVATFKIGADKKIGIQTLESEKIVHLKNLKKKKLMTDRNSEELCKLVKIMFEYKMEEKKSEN

LbuC2c2-dHEPN1/dHEPN2 [1] = target: T2, LbuC2c2-dHEPN1/dHEPN2 (Leptotrichia buccalis, UniProt C7NBY4 1-1159, R472A;H477A;R1048A;H1053A); assay: filter binding
T2 sequence: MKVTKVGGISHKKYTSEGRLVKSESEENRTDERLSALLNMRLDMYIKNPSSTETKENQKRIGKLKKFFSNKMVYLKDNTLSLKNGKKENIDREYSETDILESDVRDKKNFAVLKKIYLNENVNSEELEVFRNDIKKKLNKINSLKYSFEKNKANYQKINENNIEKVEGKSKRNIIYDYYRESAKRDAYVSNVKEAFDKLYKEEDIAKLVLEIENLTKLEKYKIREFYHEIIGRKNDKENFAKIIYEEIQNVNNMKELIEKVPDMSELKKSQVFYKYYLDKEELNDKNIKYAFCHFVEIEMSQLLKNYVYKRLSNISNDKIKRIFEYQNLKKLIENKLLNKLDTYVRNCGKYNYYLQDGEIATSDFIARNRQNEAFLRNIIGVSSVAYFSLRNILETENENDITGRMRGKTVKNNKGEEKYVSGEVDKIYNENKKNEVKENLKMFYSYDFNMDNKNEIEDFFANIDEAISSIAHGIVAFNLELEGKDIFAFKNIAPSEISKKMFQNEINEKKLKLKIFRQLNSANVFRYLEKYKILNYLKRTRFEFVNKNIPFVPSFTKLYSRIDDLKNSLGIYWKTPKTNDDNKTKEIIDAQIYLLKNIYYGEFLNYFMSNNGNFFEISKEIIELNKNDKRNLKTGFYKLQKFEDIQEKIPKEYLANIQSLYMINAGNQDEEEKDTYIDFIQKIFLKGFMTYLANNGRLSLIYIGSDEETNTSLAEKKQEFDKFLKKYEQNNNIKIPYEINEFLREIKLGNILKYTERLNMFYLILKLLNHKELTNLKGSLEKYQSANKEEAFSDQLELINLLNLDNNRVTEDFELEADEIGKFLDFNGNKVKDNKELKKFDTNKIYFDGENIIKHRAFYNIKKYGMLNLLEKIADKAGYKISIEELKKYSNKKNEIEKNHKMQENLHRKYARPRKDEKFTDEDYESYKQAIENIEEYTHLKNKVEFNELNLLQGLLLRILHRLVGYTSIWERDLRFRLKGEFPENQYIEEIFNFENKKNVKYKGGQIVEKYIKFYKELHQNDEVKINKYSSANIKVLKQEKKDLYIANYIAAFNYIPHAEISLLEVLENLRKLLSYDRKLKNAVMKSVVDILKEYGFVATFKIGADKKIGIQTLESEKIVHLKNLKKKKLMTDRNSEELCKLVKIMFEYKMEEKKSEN

LbuC2c2-dHEPN2 = target: T3, LbuC2c2-dHEPN2 (Leptotrichia buccalis, UniProt C7NBY4 1-1159, R1048A;H1053A); assay: filter binding
T3 sequence: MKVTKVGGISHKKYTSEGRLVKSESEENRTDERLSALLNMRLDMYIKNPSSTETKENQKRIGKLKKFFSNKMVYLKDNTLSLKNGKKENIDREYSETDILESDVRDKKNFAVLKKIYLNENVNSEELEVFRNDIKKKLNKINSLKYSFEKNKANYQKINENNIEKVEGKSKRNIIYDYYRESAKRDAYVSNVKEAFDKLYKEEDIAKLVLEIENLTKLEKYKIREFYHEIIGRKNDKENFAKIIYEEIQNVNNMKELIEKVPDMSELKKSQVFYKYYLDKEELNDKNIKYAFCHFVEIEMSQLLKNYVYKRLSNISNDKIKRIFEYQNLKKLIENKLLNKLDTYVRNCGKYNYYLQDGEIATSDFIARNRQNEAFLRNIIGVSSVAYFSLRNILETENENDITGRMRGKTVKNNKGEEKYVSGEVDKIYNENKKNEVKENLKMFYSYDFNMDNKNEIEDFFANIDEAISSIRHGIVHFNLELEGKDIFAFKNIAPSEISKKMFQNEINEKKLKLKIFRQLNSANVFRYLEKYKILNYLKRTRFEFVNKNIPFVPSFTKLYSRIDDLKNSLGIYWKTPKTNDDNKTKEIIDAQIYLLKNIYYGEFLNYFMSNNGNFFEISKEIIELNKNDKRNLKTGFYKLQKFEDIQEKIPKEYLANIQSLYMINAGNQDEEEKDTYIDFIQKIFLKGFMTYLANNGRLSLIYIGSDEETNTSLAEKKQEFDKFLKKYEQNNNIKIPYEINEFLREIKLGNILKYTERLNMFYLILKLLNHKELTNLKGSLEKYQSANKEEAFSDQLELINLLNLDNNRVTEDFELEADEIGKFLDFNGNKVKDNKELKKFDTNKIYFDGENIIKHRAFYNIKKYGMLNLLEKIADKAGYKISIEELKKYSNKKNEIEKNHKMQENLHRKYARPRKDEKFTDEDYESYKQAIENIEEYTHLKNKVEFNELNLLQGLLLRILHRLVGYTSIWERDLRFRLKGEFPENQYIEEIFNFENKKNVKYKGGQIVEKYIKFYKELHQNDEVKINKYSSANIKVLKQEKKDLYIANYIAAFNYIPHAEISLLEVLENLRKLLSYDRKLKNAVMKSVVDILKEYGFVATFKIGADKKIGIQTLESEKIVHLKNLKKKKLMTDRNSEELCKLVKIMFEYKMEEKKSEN

LbuC2c2-R1079A = target: T4, LbuC2c2-R1079A (Leptotrichia buccalis, UniProt C7NBY4 1-1159, R1079A); assay: filter binding
T4 sequence: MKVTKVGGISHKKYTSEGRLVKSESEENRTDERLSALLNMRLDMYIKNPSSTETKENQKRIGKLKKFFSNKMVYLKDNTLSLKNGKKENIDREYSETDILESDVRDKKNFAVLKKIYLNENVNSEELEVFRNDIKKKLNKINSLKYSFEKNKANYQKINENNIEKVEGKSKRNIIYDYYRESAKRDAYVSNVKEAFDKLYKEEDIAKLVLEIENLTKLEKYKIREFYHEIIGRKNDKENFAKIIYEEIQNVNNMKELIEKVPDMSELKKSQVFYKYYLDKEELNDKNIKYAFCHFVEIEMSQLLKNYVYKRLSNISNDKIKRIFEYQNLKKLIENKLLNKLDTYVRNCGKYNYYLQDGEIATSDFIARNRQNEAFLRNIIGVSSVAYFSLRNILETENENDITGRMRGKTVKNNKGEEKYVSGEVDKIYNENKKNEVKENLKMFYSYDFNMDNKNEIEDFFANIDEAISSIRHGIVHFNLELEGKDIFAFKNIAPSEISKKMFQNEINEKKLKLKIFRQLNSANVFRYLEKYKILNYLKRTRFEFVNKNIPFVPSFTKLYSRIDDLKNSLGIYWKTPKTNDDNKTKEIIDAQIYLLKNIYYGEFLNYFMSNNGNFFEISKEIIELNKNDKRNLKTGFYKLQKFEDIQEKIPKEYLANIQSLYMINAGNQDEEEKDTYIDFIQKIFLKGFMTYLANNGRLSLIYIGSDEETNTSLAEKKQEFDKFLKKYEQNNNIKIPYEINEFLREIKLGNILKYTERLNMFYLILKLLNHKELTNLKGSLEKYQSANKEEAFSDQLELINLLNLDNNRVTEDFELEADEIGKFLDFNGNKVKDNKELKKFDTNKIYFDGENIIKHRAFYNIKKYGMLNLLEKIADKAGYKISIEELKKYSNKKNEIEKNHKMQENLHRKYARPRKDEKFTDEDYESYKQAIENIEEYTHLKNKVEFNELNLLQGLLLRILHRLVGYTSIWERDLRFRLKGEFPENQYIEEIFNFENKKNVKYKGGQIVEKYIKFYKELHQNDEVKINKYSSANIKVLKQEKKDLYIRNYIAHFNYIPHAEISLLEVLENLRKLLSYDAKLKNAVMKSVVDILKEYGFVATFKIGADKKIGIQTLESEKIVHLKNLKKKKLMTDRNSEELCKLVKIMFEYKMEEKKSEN

LbuC2c2-dHEPN1/dHEPN2 [2] = target: T2, LbuC2c2-dHEPN1/dHEPN2; assay: EMSA

B1: mature crRNA-A_GG (crLbu_A_GG_AES432) (structured_RNA)
RNA: GGCCACCCCAAAAAUGAAGGGGACUAAAACAGGGGCAGAGAUGAUGACCCU
LbuC2c2-dHEPN1
  Kd: 15.2 ± 3.2 nM
LbuC2c2-dHEPN1/dHEPN2 [1]
  Kd: 43.3 ± 11.5 nM
LbuC2c2-dHEPN2
  Kd: 11.5 ± 2.5 nM

B2: mature crRNA-A_GA (crLbu_A_mature_GA_SCK340) (structured_RNA)
RNA: GACCACCCCAAAAAUGAAGGGGACUAAAACAGGGGCAGAGAUGAUGACCCU
LbuC2c2-R1079A
  Kd: 2.52 ± 0.5 nM

B3: crRNA-A_GG guide + on-target A ssRNA (mixed)
RNA 1: GGCCACCCCAAAAAUGAAGGGGACUAAAACAGGGGCAGAGAUGAUGACCCU
RNA 2: GGCACACCCGCAGGGGGGAGCCAAAAGGGUCAUCAUCUCUGCCCCCACAGCAGAAGCCCC
LbuC2c2-dHEPN1/dHEPN2 [2]
  Kd: 1.62 ± 0.43 nM
